Reference: patent publication US20230346949A1, “A METHOD OF FORMING A CONJUGATE OF A SULFONAMIDE AND A POLYPEPTIDE” (SANOFI, priority 2019, published 2023)

Tests used:
[1] = biological target: human insulin receptor isoform B (human) (UniProt P06213); experiment: cell-based or functional assay
[2] = biological target: human insulin receptor isoform B (human) (UniProt P06213); experiment: SPA competition with 100 pM [125I]-human insulin, membranes of CHO cells overexpressing IR
[3] = Storage stability of the activated sulfonamide; type: physicochemical; settings: acetonitrile solution under argon, 2 to 8° C.
Experimental: 32.5 g 2-[2-[2-[[2-[2-[2-[[2-[[4-(16-tert-butoxy-16-oxo-hexadecoxy)phenyl]sulfonylamino]-pyrimidine-5-carbonyl]amino]ethoxy]ethoxy]acetyl]amino]ethoxy]ethoxy]acetic acid (sticky syrup) was dissolved in 305 ml dry acetonitrile. 305 ml dry ethyl acetate under an argon layer, 16.25 g (63.4 mmol) N,N-disuccinimidylcarbonat and 3.25 g (26.6 mmol) dimethylaminopyridine was added under stirring at room temperature (25° C.). After 90 minutes, the solvent was distilled off using a rotary evaporator and the remaining oily product was dissolved in 1.5 liters of ethyl acetate. The ethyl acetate solution was extracted three times, each time with 300 ml 0.1 N HCl and 300 ml saturated NaCl solution. The solvent was distilled off using a rotary evaporator, leaving again an oily product. The oily product was dissolved in 0.5 liters of ethyl acetate, the precipitated NaCl was filtered off and the ethyl acetate was distilled off. Next, 0.5 liters of ethyl acetate was added and the solvent was distilled off using a rotary evaporator. […] Yield in the acetonitrile solution was calculated from HPLC data as 78% based on the amount of 2-[2-[2-[[2-[2-[2-[[2[[4-(16-tert-butoxy-16-oxo-hexadecoxy)phenyl]sulfonylamino]-pyrimidine-5-carbonyl]amino]ethoxy]ethoxy]acetyl]amino]ethoxy]ethoxy]acetic acid used. […]

Molecule	Autophosphorylation activity (relative to human insulin) [1]	Insulin-receptor binding affinity (relative to human insulin) (relative to human insulin) [2]	stability in solution [3]
Glu(A14)Val(B16)Des(B30)-Insulin (ligand)	0.32		
Ala(B25)-Insulin (ligand)	0.2		
Glu(A14)Gly(A21)Trp(B16)Des(B30)-Insulin (ligand)	0.38	0.63	
Ala(B25)Des(B30)-Insulin (ligand)	0.17		
Glu(A14)Glu(B16)His(B25)Des(B30)-Insulin (ligand)	0.07	0.01	
Glu(A14)Glu(B3)Ile(B16)Ile(B25)Des(B30)-Insulin (ligand)	0.01		
Glu(A14)Glu(B3)Val(B16)Des(B30)-Insulin (ligand)	0.28	0.4	
Glu(A14)Ile(B16)Des(B30)-Insulin (ligand)	0.18	0.23	
His(B25)Des(B30)-Insulin (ligand)	0.31		
His(B16)His(B25)Des(B30)-Insulin (ligand)	0.1		
Val(B16)Des(B30)-Insulin (ligand)	0.32		
Glu(A14)Glu(B3)Val(B16)Val(B25)Des(B30)-Insulin (ligand)	0.02		
Glu(A14)Gly(A21)Glu(B3)Val(B16)Trp(B25)Des(B30)-Insulin (ligand)	0.19	0.21	
Glu(A14)Val(B16)Ile(B25)Des(B30)-Insulin (ligand)	0.01		
Gly(A21)Trp(B16)His(B25)Des(B30)-Insulin (ligand)	0.35	0.4	
Glu(A14)His(B16)His(B25)Des(B30)-Insulin (ligand)	0.11	0.12	
Glu(A14)Leu(B16)Ala(B25)Des(B30)-Insulin (ligand)	0.04	0.01	
Glu(A14)Ile(B25)Des(B30)-Insulin (ligand)	0.04		
Glu(A14)Val(B16)Val(B25)Des(B30)-Insulin (ligand)	0.03		
Glu(A14)Des(B30)-Insulin (ligand)	0.87		
Glu(A14)His(B16)Des(B30)-Insulin (ligand)	0.29	0.36	
Leu(B25)Des(B30)-Insulin (ligand)	0.06		

The next lines start with the values.

Autophosphorylation activity (relative to human insulin) [1]	Insulin-receptor binding affinity (relative to human insulin) (relative to human insulin) [2]	stability in solution [3]	Molecule
0.06			Val(B25)Des(B30)-Insulin (ligand)
		less than 3 days	O=C(O)CCCCCCCCCCCCCCCOc1ccc(S(=O)(=O)Nc2ncc(C(=O)NCCOCCOCC(=O)NCCOCCOCC(=O)ON3C(=O)CCC3=O)cn2)cc1 [16-[4-[[5-[2-[2-[2-[2-[2-[2-(2,5-dioxopyrrolidin-1-yl)oxy-2-oxo-ethoxy]ethoxy]ethylamino]-2-oxo-ethoxy]ethoxy]ethylcarbamoyl]pyrimidin-2-yl]sulfamoyl]phenoxy]hexadecanoate]
0.4	0.57		Gly(A21)Trp(B16)Des(B30)-Insulin (ligand)
0.13	0.12		Glu(A14)Gly(A21)Glu(B3)Ile(B16)Trp(B25)Des(B30)-Insulin (ligand)
0.04			Glu(A14)Val(B25)Des(B30)-Insulin (ligand)
0.34			Leu(B16)Des(B30)-Insulin (ligand)
0.01	0.01		Glu(A14)Gly(A21)Glu(B3)Val(B16)Val(B25)Des(B30)-Insulin (ligand)
0.02	0.01		Glu(A14)Gly(A21)Glu(B3)Ile(B16)Val(B25)Des(B30)-Insulin (ligand)
0.38	0.43		Gly(A21)Trp(B16)Trp(B25)Des(B30)-Insulin (ligand)
0.03	0.02		Glu(A14)Gly(A21)Glu(B3)Val(B25)Des(B30)-Insulin (ligand)
0.37			Glu(A14)Gly(A21)Trp(B25)Des(B30)-Insulin (ligand)
0.04			Glu(A14)Ile(B16)Val(B25)Des(B30)-Insulin (ligand)
0.23	0.17		Glu(A14)Gly(A21)Val(B16)Trp(B25)Des(B30)-Insulin (ligand)
